In PMC10585395 one finds ATPase activity of 0.5 uM RavA with equimolar full-length ViaA (ATP-NADH coupled assay) data, which are given here for one molecule.

For the test, the target named is Regulatory ATPase variant A (RavA) (E. coli) (UniProt P31473).

B1: von Willebrand factor type A interacting with AAA+ ATPase (ViaA) (natural protein)
chain: MLTLDTLNVMLAVSEEGLIEEMIIALLASPQLAVFFEKFPRLKAAITDDVPRWREALRSRLKDARVPPELTEEVMCYQQSQLLSTPQFIVQLPQILDLLHRLNSPWAEQARQLVDANSTITSALHTLFLQRWRLSLIVQATTLNQQLLEEEREQLLSEVQERMTLSGQLEPILADNNTAAGRLWDMSAGQLKRGDYQLIVKYGEFLNEQPELKRLAEQLGRSREAKSIPRNDAQMETFRTMVREPATVPEQVDGLQQSDDILRLLPPELATLGITELEYEFYRRLVEKQLLTYRLHGESWREKVIERPVVHKDYDEQPRGPFIVCVDTSGSMGGFNEQCAKAFCLALMRIALAENRRCYIMLFSTEIVRYELSGPQGIEQAIRFLSQQFRGGTDLASCFRAIMERLQSREWFDADAVVISDFIAQRLPDDVTSKVKELQRVHQHRFHAVAMSAHGKPGIMRIFDHIWRFDTGMRSRLLRRWRR
The molecule B1 showed an ATPase activity of 0.5 uM RavA with equimolar full-length ViaA (ATP-NADH coupled assay) of 3 fold.
